# Molecular target: Spike protein on SARS-CoV-2 GFP Reporter Virus Particles (pseudotyped lentivirus), wild-type strain (SARS-CoV-2, UniProt P0DTC2 14-1273)
# Assay: cell-based or functional assay
binder,measurement,value
Wildtype SR4 nanobody (VHH) VHH: QVQLVESGGGLVQAGGSLRLSCAASGFPVYSWNMWWYRQAPGKEREWVAAIESHGDSTRYADSVKGRFTISRDNAKNTVYLQMNSLKPEDTAVYYCYVWVGHTYYGQGTQVTVSA,"IC50, inhibition of pseudovirus infection of 293T-ACE2 cells",550 nM

# — patent US20240262791A1 (University of California, published 2024)
